# Legend:
# [1] = molecular target: T1, human CD40 on cells (native CD40 on Ramos cells, human B cells, human monocyte-derived dendritic cells); cell … (human, UniProt P25942 21-193); assay: FACS on live Ramos cells, goat anti-human IgG PE
# T1 construct: Endogenous CD40 on human cells; also called native CD40 protein; CD40 positive cells
# Protocol: (§1) In another experiment, the ability of the CD40 antibodies to bind to native CD40 protein was determined by FACS analysis with live Ramos cells. Ramos cells were harvested and blocked with 1.5 ml blocking buffer (0.1% BSA/PBS) for 30 minutes. Antibodies at various concentrations were added to cells and incubated for 1 hour. After washing, 50 ul Goat-anti-human IgG (H+L) PE antibody at 1:1000 dilution in blocking solution was added and incubated for 30 minutes. Cells were then washed with PBS and were re-suspended with […] and analyzed by FACS. The antibodies tested were the 19-21 rabbit anti-CD40 agonist antibody, SGN-40 developed by Seattle Genetics and CP870893 from Pfizer.
# CD40-Fc protein = molecular target: T2, CD40-Fc protein (Homo sapiens (Human), UniProt P25942 21-193); assay: ELISA, plates coated with CD40-Fc protein, OD405nm
# T2 construct: not shown: Fc
# T2 sequence (P25942 21-193 limits assumed): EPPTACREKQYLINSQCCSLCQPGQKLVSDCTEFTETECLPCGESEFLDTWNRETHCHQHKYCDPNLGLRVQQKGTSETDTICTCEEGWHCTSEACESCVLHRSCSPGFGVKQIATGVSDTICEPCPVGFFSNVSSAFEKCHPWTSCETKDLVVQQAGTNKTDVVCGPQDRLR
# Text: In order to assess the ability of the APX005 […] mutant to bind to CD40, APX005 S267E heavy chain and light chain plasmids were purified from transformed bacteria and transfected into 293-6E cell. Four days after transfection, antibody-containing culture supernatants were collected and tested for binding to CD40 using ELISA (ELISA plates coated with CD40-Fc protein).
# [2] = molecular target: T1, human CD40 on cells (native CD40 on …); assay: FACS on live Ramos cells, goat anti-human IgG (H+L) PE
# Protocol: as §1
# [3] = molecular target: T1, human CD40 on cells (native CD40 on …); assay: cell-based or functional assay
# [4] = molecular target: T1, human CD40 on cells (native CD40 on …); assay: cell-based or functional assay; remark: listed apart in the source
# T1 sequence (P25942 21-193): as the sequence (P25942 21-193 limits assumed) above
Binder,EC50 [2] [µg/mL],Pro-apoptosis activity (IC50) [4] [µg/mL],further results
"APX005 S267E mutant (antibody, human IgG1, V domains shown) VH: QVQLVESGGGVVQPGRSLRLSCAASGFSFSSTYVCWVRQAPGKGLEWIACIYTGDGTNYSASWAKGRFTISKDSSKNTVYLQMNSLRAEDTAVYFCARPDITYGFAINFWGPGTLVTVSS VL: DIQMTQSPSSLSASVGDRVTIKCQASQSISSRLAWYQQKPGKPPKLLIYRASTLASGVPSRFSGSGSGTDFTLTISSLQPEDVATYYCQCTGYGISWPIGGGTKVEIK",0.0266,–,"fold higher affinity than CP870893 [1]: 6 fold; EC50 (CD40-Fc protein): 0.0551 µg/mL; EC50 (ng/ml), CD40 agonist activity: up-regulation of CD86 on human B cells [3]: 4.15 ng/mL"
"c19-21, chimeric 19-21 (rabbit Fab and human IgG1) (antibody, V domains shown) VH: QSLEESGGRLVTPGTPLTLTCTVSGFDLSSNAMNWVRQAPGKGLEWIGYITISGSAGYASWAKGRFTISKTSTTVDLKISSPTTEDTATYFCARGYNTMAIWGPGTLVTVSS VL: AQVLTQTPSPVSAPVGGTVTINCQSSQNVLINNRLAWYQQKPGQPPKLLIYDASKLASGVPSRFKGSGSGTQFTLTISGVQCDDAATYYCQAGYSSGDGNAFGGGTEVVVK",–,0.02,–
"19-21 rabbit anti-CD40 agonist antibody (antibody, V domains shown, Whether the rabbit or the chimeric form was used there is not clear) VH: QSLEESGGRLVTPGTPLTLTCTVSGFDLSSNAMNWVRQAPGKGLEWIGYITISGSAGYASWAKGRFTISKTSTTVDLKISSPTTEDTATYFCARGYNTMAIWGPGTLVTVSS VL: AQVLTQTPSPVSAPVGGTVTINCQSSQNVLINNRLAWYQQKPGQPPKLLIYDASKLASGVPSRFKGSGSGTQFTLTISGVQCDDAATYYCQAGYSSGDGNAFGGGTEVVVK",0.0201,–,–
"CP870893 (antibody, V domains shown) VH: not shown VL: DIQMTQSPSSVSASVGDRVTITCRASQGIYSWLAWYQQKPGKAPNLLIYTASTLQSGVPSRFSGSGSGTDFTLTISSLQPEDFATYYCQQANIFPLTFGGGTKVEIK",0.171,–,"EC50 (ng/ml), CD40 agonist activity: up-regulation of CD86 on human B cells [3]: 37 ng/mL"
"cR-3, chimeric R-3 (rabbit Fab and human IgG1) (antibody, V domains shown) VH: QSLEESGGDLVKPGASLTLTCTASGFSFSDSFWIAWVRQAPGKGLEWIGCIHALSSGSTYYANWARGRFTISKTSSTTVTLQMNSLTAADTATYFCARSYAGYADYNVATGLNLWGPGTLVTVSS VL: DVVMTQTPSSASAAVGGTVTTKCQASQSIGSYLAWYQQKPGQRPKLLIYAASNLASGVPSRFKGSRSGTEYTLTISGVQREDAATYYCLGSFTGSDTTFGGGTELEIL",–,0.57,–
"cR-33, chimeric R-33 (rabbit Fab and human IgG1) (antibody, V domains shown) VH: QSLEESGGDLVKPGASLTLTCTASGFSFSSSYWICWVRQAPGKGLEWIACINTGSSVTTVYARWAKGRFTISKASSTTVTLQMTSLTAADTATYFCARYIIPGYNFNLWGPGTLVTVSS VL: AYDMTQTPASVEVAVGGTVTINCQASQSISSYLYWYQQKPGQPPKLLIYDASKLASGVPSRFKGSGSGTQFTLTITGVECADAATYYCQQGYSHINVDNIFGGGTEVVVK",–,0.9,–
"cR-8, chimeric R-8 (rabbit Fab and human IgG1) (antibody, V domains shown) VH: QSLEESGGDLVKPGASLTLTCTASGFSFSSTYVCWVRQAPGKGLEWIACIYTGDGTNYSASWAKGRFTISKPSSTTVTLQMTSLTPADTATYFCARPDITYGFAINFWGPGTLVTVSS VL: DIVMTQTPSSASEPVGGTVTIKCQASQSISSRLAWYQQKPGQPPKLLIYRASTLASGVPSRFKGSGSGTEFTLTISDLECADAATYYCQCTGYGISWPIGGGTEVVVK",–,0.45,–

# Source: patent publication US20230406948A1 (APEXIGEN, published 2023)
